Laboratory results taken from PMC11087952, “Biochemical characterization of Escherichia coli DnaC variants that alter DnaB helicase loading onto DNA” (The Journal of Biological Chemistry, 2024).

T1: DnaC (wild-type) (Escherichia coli, UniProt P0AEF0 1-245)
T1 sequence: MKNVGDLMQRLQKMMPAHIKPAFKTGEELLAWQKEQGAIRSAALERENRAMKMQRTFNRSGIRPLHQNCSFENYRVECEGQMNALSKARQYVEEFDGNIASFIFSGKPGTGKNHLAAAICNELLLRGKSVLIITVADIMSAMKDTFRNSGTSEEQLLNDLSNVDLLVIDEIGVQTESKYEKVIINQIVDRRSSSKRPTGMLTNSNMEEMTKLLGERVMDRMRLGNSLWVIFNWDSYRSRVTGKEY

T2: DnaC 809 (Escherichia coli, UniProt P0AEF0 1-245, E176G)
T2 sequence: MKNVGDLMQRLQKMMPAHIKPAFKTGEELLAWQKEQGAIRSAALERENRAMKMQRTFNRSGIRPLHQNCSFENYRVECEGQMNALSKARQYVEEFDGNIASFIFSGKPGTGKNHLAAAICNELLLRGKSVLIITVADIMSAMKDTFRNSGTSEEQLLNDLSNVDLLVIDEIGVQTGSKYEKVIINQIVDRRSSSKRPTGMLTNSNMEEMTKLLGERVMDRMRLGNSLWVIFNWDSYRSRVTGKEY

T3: DnaC 809,820 (Escherichia coli, UniProt P0AEF0 1-245, E176G;K178N)
T3 sequence: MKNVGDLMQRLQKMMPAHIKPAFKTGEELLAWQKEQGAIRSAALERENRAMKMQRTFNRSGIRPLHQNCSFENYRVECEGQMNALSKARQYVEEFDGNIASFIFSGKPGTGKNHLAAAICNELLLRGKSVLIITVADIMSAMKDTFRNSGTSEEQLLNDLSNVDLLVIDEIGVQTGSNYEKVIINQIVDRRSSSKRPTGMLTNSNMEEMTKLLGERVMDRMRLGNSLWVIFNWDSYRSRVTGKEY

T4: DnaC 1331 (Escherichia coli, UniProt P0AEF0 1-245, A84T)
T4 sequence: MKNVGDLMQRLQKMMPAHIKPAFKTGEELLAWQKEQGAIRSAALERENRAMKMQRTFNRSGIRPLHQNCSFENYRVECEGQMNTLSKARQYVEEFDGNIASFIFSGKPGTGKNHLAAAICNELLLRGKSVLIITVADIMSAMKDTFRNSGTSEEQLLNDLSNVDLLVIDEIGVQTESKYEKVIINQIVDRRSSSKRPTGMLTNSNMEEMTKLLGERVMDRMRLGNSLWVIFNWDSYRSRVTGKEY

B1: DnaC 809 (E176G) (natural protein, E. coli, UniProt P0AEF0 1-245, looked up)
chain: MKNVGDLMQRLQKMMPAHIKPAFKTGEELLAWQKEQGAIRSAALERENRAMKMQRTFNRSGIRPLHQNCSFENYRVECEGQMNALSKARQYVEEFDGNIASFIFSGKPGTGKNHLAAAICNELLLRGKSVLIITVADIMSAMKDTFRNSGTSEEQLLNDLSNVDLLVIDEIGVQTGSKYEKVIINQIVDRRSSSKRPTGMLTNSNMEEMTKLLGERVMDRMRLGNSLWVIFNWDSYRSRVTGKEY
notes: DnaC helicase loader, E. coli, with E176G; Point mutation introduced by site-directed mutagenesis; the allele was first isolated as a suppressor of priA deficiency; also called product of dnaC809
B2: DnaC 811 (I184F) (natural protein, E. coli, UniProt P0AEF0 1-245, looked up)
chain: MKNVGDLMQRLQKMMPAHIKPAFKTGEELLAWQKEQGAIRSAALERENRAMKMQRTFNRSGIRPLHQNCSFENYRVECEGQMNALSKARQYVEEFDGNIASFIFSGKPGTGKNHLAAAICNELLLRGKSVLIITVADIMSAMKDTFRNSGTSEEQLLNDLSNVDLLVIDEIGVQTESKYEKVIFNQIVDRRSSSKRPTGMLTNSNMEEMTKLLGERVMDRMRLGNSLWVIFNWDSYRSRVTGKEY
notes: DnaC helicase loader, E. coli, with I184F; Point mutation introduced by site-directed mutagenesis; also called product of dnaC811
B3: DnaC 809,820 (E176G, K178N) (natural protein, E. coli, UniProt P0AEF0 1-245, looked up)
chain: MKNVGDLMQRLQKMMPAHIKPAFKTGEELLAWQKEQGAIRSAALERENRAMKMQRTFNRSGIRPLHQNCSFENYRVECEGQMNALSKARQYVEEFDGNIASFIFSGKPGTGKNHLAAAICNELLLRGKSVLIITVADIMSAMKDTFRNSGTSEEQLLNDLSNVDLLVIDEIGVQTGSNYEKVIINQIVDRRSSSKRPTGMLTNSNMEEMTKLLGERVMDRMRLGNSLWVIFNWDSYRSRVTGKEY
notes: DnaC helicase loader, E. coli, with E176G and K178N; Point mutations introduced by site-directed mutagenesis; also called product of dnaC809,820
B4: dT20 (ssDNA)
DNA: TTTTTTTTTTTTTTTTTTTT

Columns and labels:
[1] = target: T5, Escherichia coli DnaB replicative helicase (wild-type) (E. coli, UniProt P0ACB0 1-471); experiment: SEC; 10 nmol DnaB and 12 nmol DnaC (1.2:1 DnaC:DnaB) in 20 mM Tris-HCl pH 8.5, 0.2 M NaCl, 5 mM MgCl2, 1 mM BME, 1 mM ATP; analytical size exclusion column (Increase 10/300 GL); peak fractions analysed by PAGE for DnaB and DnaC; conditions: both partners purified
T5 construct: DnaB replicative DNA helicase, E. coli, wild-type; The introduction describes DnaB as a closed ring-shaped hexamer; also called DnaB helicase
T5 sequence (P0ACB0 whole entry): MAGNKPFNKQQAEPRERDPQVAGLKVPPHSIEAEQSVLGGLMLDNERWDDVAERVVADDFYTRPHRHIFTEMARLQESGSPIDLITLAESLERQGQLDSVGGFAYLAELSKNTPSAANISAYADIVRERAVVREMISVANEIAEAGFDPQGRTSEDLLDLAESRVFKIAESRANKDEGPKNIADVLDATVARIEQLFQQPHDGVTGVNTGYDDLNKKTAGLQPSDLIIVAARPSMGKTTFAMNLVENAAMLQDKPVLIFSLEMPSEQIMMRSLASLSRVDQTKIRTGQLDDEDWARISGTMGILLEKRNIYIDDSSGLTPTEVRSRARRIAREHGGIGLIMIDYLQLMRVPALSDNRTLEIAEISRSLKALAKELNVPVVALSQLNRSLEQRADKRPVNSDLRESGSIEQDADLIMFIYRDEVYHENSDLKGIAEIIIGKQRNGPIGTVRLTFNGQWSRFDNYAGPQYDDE

DnaC (wild-type) = target: T1, DnaC (wild-type); experiment: fluorescence anisotropy; 5 mM Mg2+, 2 mM ATP; 50 mM HEPES-KOH pH 7.5, 125 mM KCl, 10% glycerol, 5 mM MgCl2, 2 mM ATP, 2 mM DTT, 0.1 mg/ml BSA, 10 nM DNA, 0-50 uM DnaC; 37 C 15 min, read at 25 C; saturation; conditions: protein: recombinant; tags: 6XHis-MBP removed by TEV; single strand
DnaC 809 = target: T2, DnaC 809; experiment: fluorescence anisotropy; 5 mM Mg2+, 2 mM ATP; similar to wild-type; 50 mM HEPES-KOH pH 7.5, 125 mM KCl, 10% glycerol, 5 mM MgCl2, 2 mM ATP, 2 mM DTT, 0.1 mg/ml BSA, 10 nM DNA, 0-50 uM DnaC; 37 C 15 min, read at 25 C; saturation; conditions: protein: recombinant; tags: 6XHis-MBP, TEV cleaved; periplasmic localization signal on expression construct; single strand
DnaC 809,820 = target: T3, DnaC 809,820; experiment: as above; conditions: protein: recombinant; tags: 6XHis-MBP, TEV cleaved; periplasmic localization signal on expression construct; single strand
DnaC 1331 = target: T4, DnaC 1331; experiment: as above; conditions: protein: recombinant; tags: 6XHis-MBP, TEV cleaved; periplasmic localization signal on expression construct; single strand

Binder | binding result [1] | binding result (DnaC (wild-type)) | binding result (DnaC 809) | binding result (DnaC 809,820) | binding result (DnaC 1331)
B1 | binds |  |  |  | 
B2 | binds |  |  |  | 
B3 | binds |  |  |  | 
B4 |  | binds | binds | binds | binds
